According to PMC11503464, “Copper-61 is an advantageous alternative to gallium-68 for PET imaging of somatostatin receptor-expressing tumors: a head-to-head comparative preclinical study” (Frontiers in Nuclear Medicine, 2024):

Key:
[1] = Stability of labeling solutions at room temperature by radio-HPLC; assay type: physicochemical; conditions: labeling solution stored at room temperature
Experimental: An aliquot of DOTA-TOC or NODAGA-TOC (3–6 nmol, 1 mg/ml in TraceSelect water) was diluted in 0.25–0.30 ml ammonium acetate (0.5 M, pH 8), followed by the addition of [^61Cu]CuCl2 (30–150 MBq). The reaction mixture was incubated for 15 min at 95°C (DOTA-TOC) or at room temperature (NODAGA-TOC). The pH of the reaction mixture was between 5 and 6. Quality control was performed on a Shimadzu 2020 HPLC system connected to a Berthold radio detector (Flow Star 513).

[2] = assay type: physicochemical
Experimental: Briefly, the radiotracer (10 µl, 1 µM) was added to 1 ml of a 1:1 pre-saturated mixture of 1-octanol and phosphate-buffered saline (PBS pH 7.4). The solution was vortexed for 30 min and then centrifuged at 3,000 rpm to achieve phase separation. Aliquots of 0.1 ml from each phase were collected and measured in a γ-counter. The distribution coefficient was calculated as the average of the logarithmic values (n = 3) of the ratio between the radioactivity in the organic and PBS phases. [^68Ga]Ga-DOTA-TOC was used as a reference.

HEK-SST2 cells [3] = assay: Cellular uptake and distribution on intact HEK-SST2 cells; assay type: cell-based, human; conditions: specific uptake, after 4 h at 37°C
Experimental: At the defined time points, the medium was removed, and the cells were washed twice with ice-cold PBS. The cells were then treated twice for 5 min with ice-cold glycine solution (0.05 M, pH 2.8) to detach the cell membrane-bound fraction (acid released). Afterward, the cells containing the internalized fraction were detached using NaOH 1 M at 37°C and collected for measurement. [^68Ga]Ga-DOTA-TOC was evaluated as a reference.

HEK-SST2 cells [4] = assay: Efflux from HEK-SST2 cells; assay type: cell-based, human
Experimental: The efflux was studied after 1 h incubation of the cells with the radiotracer at 37°C and the removal of the unbound fraction and the cell membrane-bound fraction, as described above (acid-wash). The cells were then incubated with fresh medium at 37°C either alone or with a competitor (1,000-fold excess of DOTA-TOC, 2.5 µM/well) for 10, 20, 30, 45, 60, 90, 120, 150, 180, and 240 min. At each time point, the efflux (or retention) was measured after the removal of the medium without or with the competitor and replacement with fresh pre-warmed (37°C) medium alone or with the competitor. At the end of the experiment, the cells were detached using 1 M NaOH at 37°C and collected to determine the remaining cell-associated radiotracer.

[5] = set-up: species or system mice; conditions: mouse, in vivo
Experimental: [^64Cu]CuCl2 was provided by the University Hospital Tübingen, Germany. […] OLINDA/EXM 1.0 was used to integrate the fitted time-activity curves and to estimate the organ and effective doses using the whole-body adult female model. For all the calculations, the assumption was made that the mouse biodistribution, determined as the %IA/organ, was the same as the human biodistribution. The dosimetry estimates were performed as previously described ([14]).

in vivo = conditions: female, athymic nude-Foxn1^nu/Foxn1^+, mouse, 200 pmol, total radioactivity
HEK-SST2 xenografts = conditions: female, athymic nude-Foxn1^nu/Foxn1^+, mouse, in vivo, 200 pmol, 1 h
[6] = in vivo; cited from earlier work
[7] = mouse, in vivo; cited from earlier work

## C[C@@H](O)[C@@H]1NC(=O)[C@H](CCCCN)NC(=O)[C@@H](Cc2c[nH]c3ccccc23)NC(=O)[C@H](Cc2ccc(O)cc2)NC(=O)[C@@H](NC(=O)[C@@H](Cc2ccccc2)NC(=O)CCC(C(=O)O)N2CCN(CC(=O)O)CCN(CC(=O)O)CC2)CSSC[C@@H](C(=O)N[C@H](CO)[C@@H](C)O)NC1=O (stereo partly shown) [[^61Cu]Cu-NODAGA-TOC, metal not drawn]
[1]; 2 h after end of synthesis
  Radiochemical purity (%) 2 h: 98 ± 1%
[1]; 4 h after end of synthesis
  Radiochemical purity (%) 4 h: 97 ± 1%
[2]; pH 7.4, log D(O/PBS pH 7.4)
  logD: -2.6 ± 0.24
HEK-SST2 cells [3]
  Cellular uptake (surface bound + internalized): 70.9 ± 3.5%
HEK-SST2 cells [4]; after 2 h, 37°C, no further increase at 4 h
  Efflux plateau in the absence of a competitor: approximately 40%
HEK-SST2 cells [4]; after 4 h at 37°C, DOTA-TOC (competitor) added to the medium
  Efflux with competitor: 80%
[5]
  Total absorbed dose, Adrenals: 6.77 × 10^−3 mGy/MBq
  Total absorbed dose, Brain: 1.53 × 10^−5 mGy/MBq
  Total absorbed dose, Breasts: 2.14 × 10^−4 mGy/MBq
  Total absorbed dose, Gallbladder wall: 2.14 × 10^−3 mGy/MBq
  Total absorbed dose, Heart wall: 1.02 × 10^−3 mGy/MBq
  Total absorbed dose, Kidneys: 9.65 × 10^−2 mGy/MBq
  Total absorbed dose, LLI wall: 8.28 × 10^−4 mGy/MBq
  Total absorbed dose, Liver: 4.06 × 10^−3 mGy/MBq
  Total absorbed dose, Lungs: 1.67 × 10^−3 mGy/MBq
  Total absorbed dose, Muscle: 5.63 × 10^−4 mGy/MBq
  Total absorbed dose, Osteogenic cells: 6.57 × 10^−4 mGy/MBq
  Total absorbed dose, Ovaries: 1.19 × 10^−3 mGy/MBq
  Total absorbed dose, Pancreas: 2.23 × 10^−2 mGy/MBq
  Total absorbed dose, Red marrow: 1.07 × 10^−3 mGy/MBq
  Total absorbed dose, Skin: 2.42 × 10^−4 mGy/MBq
  Total absorbed dose, Small intestine: 1.12 × 10^−2 mGy/MBq
  Total absorbed dose, Spleen: 3.49 × 10^−3 mGy/MBq
  Total absorbed dose, Stomach wall: 5.34 × 10^−3 mGy/MBq
  Total absorbed dose, Thymus: 1.98 × 10^−4 mGy/MBq
  Total absorbed dose, Thyroid: 5.27 × 10^−5 mGy/MBq
  Total absorbed dose, Total body: 1.27 × 10^−3 mGy/MBq
  Total absorbed dose, ULI wall: 2.14 × 10^−3 mGy/MBq
  Total absorbed dose, Urinary bladder wall: 3.48 × 10^−4 mGy/MBq
  Total absorbed dose, Uterus: 1.03 × 10^−3 mGy/MBq
In vivo; Adrenal uptake
  tissue uptake at 1 h: 0.99 ± 0.17 %ID/g
  tissue uptake at 4 h: 0.67 ± 0.26 %ID/g
In vivo; Blood uptake
  tissue uptake at 1 h: 0.22 ± 0.04 %ID/g
  tissue uptake at 4 h: 0.04 ± 0.02 %ID/g
In vivo; Bone uptake
  tissue uptake at 1 h: 0.46 ± 0.17 %ID/g
  tissue uptake at 4 h: 0.31 ± 0.11 %ID/g
In vivo; Heart uptake
  tissue uptake at 1 h: 0.16 ± 0.04 %ID/g
  tissue uptake at 4 h: 0.07 ± 0.03 %ID/g
In vivo; Intestine uptake
  tissue uptake at 1 h: 0.92 ± 0.12 %ID/g
  tissue uptake at 4 h: 0.65 ± 0.23 %ID/g
In vivo; Kidneys uptake
  tissue uptake at 1 h: 12.5 ± 2.25 %ID/g
  tissue uptake at 4 h: 4.36 ± 0.92 %ID/g
In vivo; Liver uptake
  tissue uptake at 1 h: 0.29 ± 0.04 %ID/g
  tissue uptake at 4 h: 0.27 ± 0.09 %ID/g
In vivo; Lung uptake
  tissue uptake at 1 h: 1.09 ± 0.2 %ID/g
  tissue uptake at 4 h: 0.51 ± 0.24 %ID/g
In vivo; Muscle uptake
  tissue uptake at 1 h: 0.16 ± 0.06 %ID/g
  tissue uptake at 4 h: 0.07 ± 0.04 %ID/g
In vivo; Pancreas uptake
  tissue uptake at 1 h: 2.59 ± 0.49 %ID/g
  tissue uptake at 4 h: 0.6 ± 0.21 %ID/g
In vivo; Pituitary uptake
  tissue uptake at 1 h: 3.8 ± 1.35 %ID/g
  tissue uptake at 4 h: 2.97 ± 0.95 %ID/g
In vivo; SST2-tumor uptake
  tissue uptake at 1 h: 8.88 ± 3.19 %ID/g
  tissue uptake at 4 h: 7.39 ± 1.36 %ID/g
In vivo; Spleen uptake
  tissue uptake at 1 h: 0.22 ± 0.05 %ID/g
  tissue uptake at 4 h: 0.1 ± 0.04 %ID/g
In vivo; Stomach uptake
  tissue uptake at 1 h: 2.34 ± 0.43 %ID/g
  tissue uptake at 4 h: 1.22 ± 0.25 %ID/g

## C[C@@H](O)[C@@H]1NC(=O)[C@H](CCCCN)NC(=O)[C@@H](Cc2c[nH]c3ccccc23)NC(=O)[C@H](Cc2ccc(O)cc2)NC(=O)[C@@H](NC(=O)[C@@H](Cc2ccccc2)NC(=O)CN2CCN(CC(=O)O)CCN(CC(=O)O)CCN(CC(=O)O)CC2)CSSC[C@@H](C(=O)N[C@H](CO)[C@@H](C)O)NC1=O [[^68Ga]Ga-DOTA-TOC] [[^68Ga]Ga-DOTA-Tyr^3-octreotide, metal not drawn]
[2]; pH 7.4
  log D(O/PBS pH 7.4): −3.18 ± 0.11
HEK-SST2 cells [3]
  Cellular uptake (surface bound + internalized): 79.0 ± 3.1%
HEK-SST2 xenografts
  Adrenal uptake: 2.57 ± 0.78 %IA/g
  Blood uptake: 0.63 ± 0.09 %IA/g
  Bone uptake: 0.49 ± 0.07 %IA/g
  Heart uptake: 0.27 ± 0.03 %IA/g
  Intestine uptake: 1.39 ± 0.28 %IA/g
  Kidneys uptake: 8.37 ± 0.84 %IA/g
  Liver uptake: 0.58 ± 0.07 %IA/g
  Lung uptake: 1.68 ± 0.32 %IA/g
  Pancreas uptake: 4.77 ± 1.16 %IA/g
  Pituitary uptake: 3.29 ± 0.63 %IA/g
  SST2-tumor uptake: 6.64 ± 1.11 %IA/g
  Stomach uptake: 3.73 ± 0.36 %IA/g
[6]
  Effective dose: 0.021-0.0257 mSv/MBq

## [^68Ga]Ga-DOTA-Tyr^3-octreotate [[^68Ga]Ga-DOTA-TATE]
[6]
  Effective dose: 0.021-0.0257 mSv/MBq
[7]
  Kidney dose: 9.01 × 10^−2 mGy/MBq
  Total-body absorbed dose: 1.27 × 10^−3 mGy/MBq
